Source: PMC8591604 (Journal of Medicinal Chemistry, 2021)
[ ]: non-standard residue; d: D form. pY = N[C@@H](Cc1ccc(OP(=O)(O)O)cc1)C(=O)O

Target: T1, N-SH2 domain of SHP2 (residues 2–111) (human, UniProt Q06124 2-111)
T1 construct: SHP2 (PTPN11), human, N-terminal SH2 domain, residues 2-111; also called wild-type N-SH2; source: E. coli (DE3) Rosetta2, purified (Ni-NTA)
T1 sequence (looked up): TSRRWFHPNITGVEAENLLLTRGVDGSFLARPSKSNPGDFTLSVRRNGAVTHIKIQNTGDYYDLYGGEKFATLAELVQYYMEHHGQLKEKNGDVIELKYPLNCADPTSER
Assay: fluorescence polarisation; fluorescence anisotropy, displacement: 1.0 nM CF-P9 with 40 nM N-SH2 titrated with unlabelled peptide; fluorescence buffer
Conditions: both partners purified

B1: P8, unlabeled IRS-1 pY1172 peptide, residues −2 to +5 (peptide)
peptide: Ac-LN[pY]IDLDL-NH2
SMILES: CC[C@H](C)[C@H](NC(=O)[C@H](Cc1ccc(OP(=O)(O)O)cc1)NC(=O)[C@H](CC(N)=O)NC(=O)[C@H](CC(C)C)NC(C)=O)C(=O)N[C@@H](CC(=O)O)C(=O)N[C@@H](CC(C)C)C(=O)N[C@@H](CC(=O)O)C(=O)N[C@@H](CC(C)C)C(N)=O
notes: IRS-1, residues −2 to +5 around pY1172 (rat numbering; P9 without residue −3); source: synthetic peptide
Q: Does B1 bind?
A: binds
